The numbers were not newly measured in PMC3377446, which cites them from elsewhere.

In the series the target is PDL1 (Homo sapiens) (UniProt Q9NZQ7).
UniProt Q9NZQ7, sequence (Q9NZQ7 19-238): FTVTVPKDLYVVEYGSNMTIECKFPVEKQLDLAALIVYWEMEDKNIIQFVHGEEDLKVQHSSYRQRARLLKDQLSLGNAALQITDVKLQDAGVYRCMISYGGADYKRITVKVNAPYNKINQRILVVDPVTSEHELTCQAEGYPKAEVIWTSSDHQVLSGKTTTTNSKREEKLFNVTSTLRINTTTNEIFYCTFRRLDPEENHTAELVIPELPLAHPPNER

In the case of CD80 (from UniProt P33681), the Kd is 1400 nM.

Usually Kd stands for the constant that tells how readily two partners part at equilibrium.
